The values that follow come from US20230312741A1 (published 2023).

Positions count from the first letter of the chain named.

Assay [1] deals with T1, human CD73 expressed on the cell surface (human, UniProt P21589 27-549).
T1 sequence: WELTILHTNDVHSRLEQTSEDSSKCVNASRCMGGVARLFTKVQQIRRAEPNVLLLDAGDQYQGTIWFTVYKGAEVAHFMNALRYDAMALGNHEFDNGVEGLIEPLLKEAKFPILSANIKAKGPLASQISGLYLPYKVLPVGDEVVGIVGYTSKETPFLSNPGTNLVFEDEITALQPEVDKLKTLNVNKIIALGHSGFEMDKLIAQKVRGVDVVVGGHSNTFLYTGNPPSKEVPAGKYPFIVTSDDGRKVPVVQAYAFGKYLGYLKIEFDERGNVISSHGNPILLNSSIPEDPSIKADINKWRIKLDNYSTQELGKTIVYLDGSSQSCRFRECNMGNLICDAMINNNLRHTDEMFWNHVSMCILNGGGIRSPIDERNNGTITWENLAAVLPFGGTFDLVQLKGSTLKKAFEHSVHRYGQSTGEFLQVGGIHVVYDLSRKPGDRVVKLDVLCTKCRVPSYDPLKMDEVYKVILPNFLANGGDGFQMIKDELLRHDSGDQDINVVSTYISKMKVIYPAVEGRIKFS
The assay can be described thus: cell-based or functional assay.

For assay [2], the target named is T2, soluble CD73 protein (ACRO, CD3-H52H7) (human, UniProt P21589 27-547).
T2 sequence (looked up): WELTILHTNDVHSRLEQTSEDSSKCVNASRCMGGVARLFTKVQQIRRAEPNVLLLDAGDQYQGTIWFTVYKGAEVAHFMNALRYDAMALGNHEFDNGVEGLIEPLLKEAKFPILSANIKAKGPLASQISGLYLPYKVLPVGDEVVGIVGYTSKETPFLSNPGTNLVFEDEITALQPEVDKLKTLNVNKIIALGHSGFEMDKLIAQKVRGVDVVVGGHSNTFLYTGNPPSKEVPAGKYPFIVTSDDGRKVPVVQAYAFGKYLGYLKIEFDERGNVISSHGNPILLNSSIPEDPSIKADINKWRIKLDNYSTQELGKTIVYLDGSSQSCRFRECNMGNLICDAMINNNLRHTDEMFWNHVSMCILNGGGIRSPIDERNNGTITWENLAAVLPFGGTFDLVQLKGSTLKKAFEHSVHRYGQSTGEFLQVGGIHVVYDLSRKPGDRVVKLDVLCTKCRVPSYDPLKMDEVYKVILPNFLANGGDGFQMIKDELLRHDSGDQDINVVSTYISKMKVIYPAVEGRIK
The assay can be described thus: cell-based or functional assay.

Assay [3] addresses T3, CD73 mutant Y161A/K162A/V170A (human, UniProt P21589 27-549).
T3 construct: As m43; also called mutant 3
T3 chain: T1 sequence with Y135A, K136A, V144A
The assay can be described thus: flow cytometry, GS-CHO cells with CD73 mutant. (In flow cytometry, cells or beads pass a laser one at a time.)
Procedure: (§1) After washing three more times with PBS, the cells were resuspended in 100 ul PBS. (4) The average fluorescence value was measured in PE channel by flow cytometer. The Log₁₀ of antibody concentration was used as the horizontal coordinate and the average fluorescence value of the PE channel was used as the vertical coordinate to plot a curve, and the EC50 and the peak of the curve were compared.

Assay [4] has as its target T4, CD73 mutant K136A/Y161A/K162A/V170A (human, UniProt P21589 27-549).
T4 construct: As m43; also called mutant 13
T4 chain: T1 sequence with K110A, Y135A, K136A, V144A
The assay can be described thus: flow cytometry, GS-CHO cells with CD73 mutant.
Procedure: as §1

In assay [5] the target is T5, CD73 mutant L159A/Y161A/K162A/V170A (human, UniProt P21589 27-549).
T5 construct: As m43; also called mutant 16
T5 chain: T1 sequence with L133A, Y135A, K136A, V144A
The experiment in a line: flow cytometry, GS-CHO cells with CD73 mutant.
Procedure: as §1

The target in assay [6] is T1, human CD73 expressed on the cell surface. The assay can be described thus: cell-based or functional assay. The source holds these as a separate data set.

B1: ADI-37505 (antibody, human IgG4 S228P, kappa, F234A L235A, V domains shown)
VH: QVQLVESGGGLVQPGGSLRLSCAASGFTFSNYAMTWVRQAPGKGLEWVSAISGRGTATYYADSVKGRFTISRDNSKNTLYLQMNSLRAEDTAVYYCARGGPYGSGSYWDTFDYWGQGTLVTVSS
VL: EIVMTQSPATLSVSPGERATLSCRASQSVSSNLAWYQQKPGQAPRLLIYGASTRATGIPARFSGSGSGTEFTLTISSLQSEDFAVYYCQQYTNHYTFGGGTKVEIKR
As to B1, the “IC50, enzymatic activity of CD73 on NCI-H292 cells” value in assay [1] came to 1.47 nM. For the same molecule, in assay [2], the “IC50, enzymatic activity of soluble CD73 at 1 hour” value is 0.0718 nM. The binding result in assay [3], in assay [4] and in assay [5] was “binds” throughout. The “IC50 for inhibiting the enzymatic activity of CD73 (Calu-6 cells)” value in assay [6] is 0.076 mg/L.

B2: ADI-37506 (antibody, human IgG4 S228P, kappa, F234A L235A, V domains shown)
VH: B1 VH with Q1E, V5L, Y32L, T35S, G55A, A57S
VL: B1 VL
Regarding B2, the “IC50, enzymatic activity of CD73 on NCI-H292 cells” value in assay [1] was determined as 1.27 nM. Moreover, in assay [2], the “IC50, enzymatic activity of soluble CD73 at 1 hour” value is 0.0897 nM. The binding result in assay [3], in assay [4] and in assay [5] was “binds” in each case. In addition, the “IC50 for inhibiting the enzymatic activity of CD73 (Calu-6 cells)” value in assay [6] stood at 0.073 mg/L.
